B1: Osteomodulin (OMD), human, recombinant with C-terminal FLAG-tag (natural protein, UniProt Q99983 21-421, looked up)
chain: QYETYQWDEDYDQEPDDDYQTGFPFRQNVDYGVPFHQYTLGCVSECFCPTNFPSSMYCDNRKLKTIPNIPMHIQQLYLQFNEIEAVTANSFINATHLKEINLSHNKIKSQKIDYGVFAKLPNLLQLHLEHNNLEEFPFPLPKSLERLLLGYNEISKLQTNAMDGLVNLTMLDLCYNYLHDSLLKDKIFAKMEKLMQLNLCSNRLESMPPGLPSSLMYLSLENNSISSIPEKYFDKLPKLHTLRMSHNKLQDIPYNIFNLPNIVELSVGHNKLKQAFYIPRNLEHLYLQNNEIEKMNLTVMCPSIDPLHYHHLTYIRVDQNKLKEPISSYIFFCFPHIHTIYYGEQRSTNGQTIQLKTQVFRRFPDDDDESEDHDDPDNAHESPEQEGAEGHFDLHYYENQE
notes: osteomodulin (OMD), human, without residues 1-20 (signal peptide), residues 21-421; Its own signal peptide was replaced by the sp1-2 signal peptide for secretion; Carbohydrate is modelled in the crystal structure; Monomer by SEC-MALS; also called full-length OMD; WT OMD; source: Sf9 cells, baculovirus, secreted; not shown: FLAG, C-terminal, kept
B2: OMD E284R/E303R (double mutant in the construct of full-length OMD) (natural protein, human, UniProt Q99983 21-421, looked up)
chain: QYETYQWDEDYDQEPDDDYQTGFPFRQNVDYGVPFHQYTLGCVSECFCPTNFPSSMYCDNRKLKTIPNIPMHIQQLYLQFNEIEAVTANSFINATHLKEINLSHNKIKSQKIDYGVFAKLPNLLQLHLEHNNLEEFPFPLPKSLERLLLGYNEISKLQTNAMDGLVNLTMLDLCYNYLHDSLLKDKIFAKMEKLMQLNLCSNRLESMPPGLPSSLMYLSLENNSISSIPEKYFDKLPKLHTLRMSHNKLQDIPYNIFNLPNIVRLSVGHNKLKQAFYIPRNLRHLYLQNNEIEKMNLTVMCPSIDPLHYHHLTYIRVDQNKLKEPISSYIFFCFPHIHTIYYGEQRSTNGQTIQLKTQVFRRFPDDDDESEDHDDPDNAHESPEQEGAEGHFDLHYYENQE

Legend:
[1] = target: Type-I collagen (VitroCol, human) (human) (UniProt P02452); experiment: SPR; collagen immobilised on CM5 chip at around 8000 RU; OMD or muteins injected (0.125-2 µM), 30 µl/min; PBS pH 7.4, 0.005% Tween-20, 20 °C; KD by steady state analysis; binding response at 2 µM
Chain of Type-I collagen (VitroCol, human) (human) (P02452 162-1218, chain 1 of 2): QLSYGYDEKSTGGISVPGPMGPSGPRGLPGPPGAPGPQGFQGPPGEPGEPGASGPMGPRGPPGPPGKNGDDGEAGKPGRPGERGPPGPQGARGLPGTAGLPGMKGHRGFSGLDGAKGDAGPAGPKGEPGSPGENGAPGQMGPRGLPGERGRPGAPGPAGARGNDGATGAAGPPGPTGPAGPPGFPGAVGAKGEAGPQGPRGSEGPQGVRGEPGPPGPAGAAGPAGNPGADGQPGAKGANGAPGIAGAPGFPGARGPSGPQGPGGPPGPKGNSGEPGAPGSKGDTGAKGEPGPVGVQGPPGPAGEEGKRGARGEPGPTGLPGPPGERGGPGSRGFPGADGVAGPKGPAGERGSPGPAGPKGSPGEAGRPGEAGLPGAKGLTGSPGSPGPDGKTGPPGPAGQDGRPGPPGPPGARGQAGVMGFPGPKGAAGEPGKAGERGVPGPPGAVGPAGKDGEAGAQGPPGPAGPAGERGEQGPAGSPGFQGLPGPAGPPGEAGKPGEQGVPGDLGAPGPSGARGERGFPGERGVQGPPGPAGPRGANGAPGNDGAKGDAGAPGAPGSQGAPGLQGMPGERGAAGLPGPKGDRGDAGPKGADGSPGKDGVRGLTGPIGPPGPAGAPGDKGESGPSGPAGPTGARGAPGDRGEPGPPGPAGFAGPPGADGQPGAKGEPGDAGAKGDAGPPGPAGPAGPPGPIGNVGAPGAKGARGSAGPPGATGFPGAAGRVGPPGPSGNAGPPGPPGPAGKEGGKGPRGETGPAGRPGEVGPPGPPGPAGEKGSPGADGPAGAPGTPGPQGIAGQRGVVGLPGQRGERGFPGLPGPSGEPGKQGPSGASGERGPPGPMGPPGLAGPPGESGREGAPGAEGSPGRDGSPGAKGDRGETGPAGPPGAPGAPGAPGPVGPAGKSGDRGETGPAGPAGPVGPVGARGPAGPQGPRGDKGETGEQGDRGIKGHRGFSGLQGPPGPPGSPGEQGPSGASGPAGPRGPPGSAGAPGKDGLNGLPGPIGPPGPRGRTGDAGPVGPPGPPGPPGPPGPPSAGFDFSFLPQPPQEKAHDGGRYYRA
Chain of Type-I collagen (VitroCol, human) (human) (P08123 80-1119, chain 2 of 2, further chain): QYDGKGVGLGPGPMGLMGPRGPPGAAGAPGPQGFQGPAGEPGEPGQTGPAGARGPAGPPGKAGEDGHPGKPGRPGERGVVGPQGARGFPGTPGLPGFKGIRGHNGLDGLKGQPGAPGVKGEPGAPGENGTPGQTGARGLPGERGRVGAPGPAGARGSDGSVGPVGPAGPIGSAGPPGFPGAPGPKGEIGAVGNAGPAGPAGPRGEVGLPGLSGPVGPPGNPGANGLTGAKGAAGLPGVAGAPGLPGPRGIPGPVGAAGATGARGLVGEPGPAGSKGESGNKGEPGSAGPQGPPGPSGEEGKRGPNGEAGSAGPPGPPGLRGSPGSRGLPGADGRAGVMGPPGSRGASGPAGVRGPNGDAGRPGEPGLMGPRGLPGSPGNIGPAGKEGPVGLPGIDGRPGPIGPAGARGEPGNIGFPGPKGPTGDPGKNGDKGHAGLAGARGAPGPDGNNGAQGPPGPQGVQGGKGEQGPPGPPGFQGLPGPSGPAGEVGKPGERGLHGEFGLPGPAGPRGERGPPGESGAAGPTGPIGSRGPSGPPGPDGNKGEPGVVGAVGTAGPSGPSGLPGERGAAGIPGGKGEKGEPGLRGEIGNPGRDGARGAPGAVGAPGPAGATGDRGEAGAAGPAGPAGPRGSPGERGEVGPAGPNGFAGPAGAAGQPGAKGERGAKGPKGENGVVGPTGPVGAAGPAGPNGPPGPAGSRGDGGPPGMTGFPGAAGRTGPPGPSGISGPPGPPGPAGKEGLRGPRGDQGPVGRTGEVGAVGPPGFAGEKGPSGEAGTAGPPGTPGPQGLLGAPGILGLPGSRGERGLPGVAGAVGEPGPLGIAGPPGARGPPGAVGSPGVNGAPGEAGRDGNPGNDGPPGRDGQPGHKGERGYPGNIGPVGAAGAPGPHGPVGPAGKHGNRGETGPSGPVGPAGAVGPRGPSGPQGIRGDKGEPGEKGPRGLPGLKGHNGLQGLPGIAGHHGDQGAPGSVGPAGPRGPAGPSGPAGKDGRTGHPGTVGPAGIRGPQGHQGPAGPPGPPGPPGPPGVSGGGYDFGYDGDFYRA

[2] = target: Type-I collagen (VitroCol, human) (human) (UniProt P02452)
[3] = target: T1, Type-I collagen (VitroCol, human) (human, UniProt P02452 162-1218; P08123 80-1119); experiment: SPR; temperature dependence of the dissociation constant, van't Hoff analysis; values given at 32 °C; conditions: both partners purified
T1 construct: collagen alpha-1(I) chain, human; collagen alpha-2(I) chain, human; the enzyme treatment of the manufacturer may have removed the telopeptides; in immunoelectron microscopy the collagen had been incubated to form fibrils; also called collagen molecules; collagen fibrils; source: bought: Advanced BioMatrix (VitroCol), secreted from human neo-natal fibroblast cells, purified by enzyme treatment
T1 sequence (P02452 162-1218, chain 1 of 2): as the sequence (P02452 162-1218, chain 1 of 2) above
T1 sequence (P08123 80-1119, chain 2 of 2): as the sequence (P08123 80-1119, chain 2 of 2, further chain) above

[4] = target: T1, Type-I collagen (VitroCol, human); experiment: cell-based or functional assay
[5] = target: T1, Type-I collagen (VitroCol, human); experiment: SPR; collagen immobilised on CM5 chip at around 8000 RU; OMD or muteins injected (0.125-2 µM), 30 µl/min; PBS pH 7.4, 0.005% Tween-20, 20 °C; KD by steady state analysis; binding response at 2 µM; conditions: both partners purified

Row | Molecule | Binding (RU) at 2 µM [1] [RU] | Kd [1] [µM] | IC50 (µM) of inhibition of collagen fibril formation (normalized kobs, 1 µM collagen, PBS pH 7.4, 30 °C) [2] [μM] | also measured
1 | Chimeric OMD (chOMD): N-terminal region of the leucine-rich repeat domain of internalin B fused to a large portion of OMD (from UniProt Q99983 117-364) | 118 | 25.4 | 0.22 | kobs (per h) of collagen fibril formation with 0, 0.016, 0.08, 0.4, 2 and 10 μM chOMD (0.89 down to 0.00) [2]: 0.89 per h
2 | chOMD E303R (from UniProt Q99983 117-364) | 3.7 | 72.4 | 1.87 | kobs (per h) of collagen fibril formation with 0, 0.016, 0.08, 0.4, 2 and 10 μM chE303R (1.35 down to 0.10) [2]: 1.35 per h
3 | chOMD E284R (from UniProt Q99983 117-364) | 22.3 | 32000 | 0.61 | kobs (per h) of collagen fibril formation with 0, 0.016, 0.08, 0.4, 2 and 10 μM chE284R (0.90 down to 0.00028) [2]: 0.9 per h
4 | chOMD D254R (from UniProt Q99983 117-364) | 74.8 | 22.3 | – | –
5 | chOMD N278R (from UniProt Q99983 117-364) | 47.4 | 14.3 | – | –
6 | chOMD E311R (from UniProt Q99983 117-364) | 22.6 | 5.48 | – | –
7 | chOMD E173R (from UniProt Q99983 117-364) | 118 | 51.4 | – | –
8 | chOMD E303A (from UniProt Q99983 117-364) | – | – | 0.37 | kobs (per h) of collagen fibril formation with 0, 0.016, 0.08, 0.4 and 2 μM chE303A (1.32 down to 0.51; n.d. at 10 μM) [2]: 1.32 per h
9 | chOMD E225R (from UniProt Q99983 117-364) | 106 | 29.1 | – | –
10 | chOMD E284A (from UniProt Q99983 117-364) | 57.4 | 78.3 | 0.32 | kobs (per h) of collagen fibril formation with 0, 0.016, 0.08, 0.4, 2 and 10 μM chE284A (1.02 down to 0.00003) [2]: 1.02 per h
11 | chOMD D271R (from UniProt Q99983 117-364) | 71 | 25.6 | – | –
12 | chOMD E284R/E303R (from UniProt Q99983 117-364) | – | – | 2.18 | kobs (per h) of collagen fibril formation with 0, 0.016, 0.08, 0.4, 2 and 10 μM chE284R/E303R (1.00 down to 0.65) [2]: 1 per h
13 | B1 | – | – | – | Kd [3]: 12 µM; dH [3]: 7.9 kcal/mol; IC50 (µM) of inhibition of collagen fibril formation (normalized kobs, 1 µM collagen, PBS pH 7.4, 30 °C) [4]: 0.08 μM; Kd [5]: 24.6 µM
14 | B2 | – | – | – | IC50 (µM) of inhibition of collagen fibril formation (normalized kobs, 1 µM collagen, PBS pH 7.4, 30 °C) [4]: 0.29 μM
